Experimental data from PMC8637920, “Structure, Function and Regulation of a Second Pyruvate Kinase Isozyme in Pseudomonas aeruginosa” (Frontiers in Microbiology, 2021).

How the values were obtained:
PykFPA = target: T1, PykFPA (Pseudomonas aeruginosa, UniProt Q9I3L4); experiment: lactate dehydrogenase-coupled assay, activation; assay type: biochemical; conditions: K-type activator (shifts S0.5 of PEP), 2 mM ADP, allosteric
T1 construct: gene pykF; full-length, 477 residues, untagged, from pET-19m in E. coli BL21(DE3)
T1 sequence (Q9I3L4 1-477): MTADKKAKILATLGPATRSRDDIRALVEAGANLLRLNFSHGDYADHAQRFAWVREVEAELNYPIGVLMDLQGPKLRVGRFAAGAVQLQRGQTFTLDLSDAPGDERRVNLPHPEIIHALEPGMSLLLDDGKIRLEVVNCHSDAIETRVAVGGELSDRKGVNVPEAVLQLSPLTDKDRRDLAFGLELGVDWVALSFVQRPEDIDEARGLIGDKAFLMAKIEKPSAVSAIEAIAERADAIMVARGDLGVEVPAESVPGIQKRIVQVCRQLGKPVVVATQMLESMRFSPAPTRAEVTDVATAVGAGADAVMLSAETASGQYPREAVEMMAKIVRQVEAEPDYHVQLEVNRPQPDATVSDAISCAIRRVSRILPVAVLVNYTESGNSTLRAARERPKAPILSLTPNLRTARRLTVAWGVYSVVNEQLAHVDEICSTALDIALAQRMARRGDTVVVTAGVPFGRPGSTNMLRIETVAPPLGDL

[1] = substrate: C=C(OP(=O)(O)O)C(=O)O; experiment: lactate dehydrogenase-coupled assay; assay type: biochemical, Pseudomonas aeruginosa; conditions: 2 mM ADP; Mg2+; no regulator added; sigmoidal
[2] = substrate: Nc1ncnc2c1ncn2[C@@H]1O[C@H](COP(=O)(O)OP(=O)(O)O)[C@@H](O)[C@H]1O; experiment: lactate dehydrogenase-coupled assay; assay type: biochemical, Pseudomonas aeruginosa; conditions: 5 mM PEP; Mg2+; no regulator added; hyperbolic
[3] = target: the molecule itself; experiment: AUC; purified PykFPA in solution; carried out as previously described (Abdelhamid et al., 2019); analysed with SEDFIT and SEDNTERP

## O=C[C@H](O)COP(=O)(O)O [glyceraldehyde 3-phosphate]
PykFPA; 1 mM
  lactate dehydrogenase-coupled assay, activation: to a lesser extent, by the EDP intermediates G6P and G3P

## O=C(CO)[C@H](O)[C@H](O)COP(=O)(O)O [ribulose 5-phosphate]
PykFPA; 0.5 mM
  lactate dehydrogenase-coupled assay, activation: ribulose 5-phosphate (RL5P), and R5P]

## O=P(O)(O)OC[C@H]1OC(O)[C@H](O)[C@@H]1O (stereo partly shown) [ribose 5-phosphate]
PykFPA; 0.15 mM
  lactate dehydrogenase-coupled assay, activation: ribulose 5-phosphate (RL5P), and R5P]

## Nc1ncnc2c1ncn2[C@@H]1O[C@H](COP(=O)(O)O)[C@@H](O)[C@H]1O [adenosine 5′-monophosphate]
PykFPA; 1 mM
  lactate dehydrogenase-coupled assay, activation: PykFPA (but not PykAPA) was activated by AMP

## O=C(CO)[C@@H](O)[C@H](O)COP(=O)(O)O [xylulose 5-phosphate]
PykFPA; 0.5 mM
  lactate dehydrogenase-coupled assay, activation: strongly activated by metabolites from the non-oxidative PPP [(xylulose 5-phosphate (X5P)

## O=P(O)(O)OC[C@H]1OC(O)[C@H](O)[C@@H](O)[C@@H]1O (stereo partly shown) [glucose 6-phosphate]
PykFPA; 1 mM
  lactate dehydrogenase-coupled assay, activation: to a lesser extent, by the EDP intermediates G6P and G3P

B1: Pseudomonas aeruginosa pyruvate kinase isozyme PykF (PykFPA) (enzyme, UniProt Q9I3L4 1-477, looked up)
chain: MTADKKAKILATLGPATRSRDDIRALVEAGANLLRLNFSHGDYADHAQRFAWVREVEAELNYPIGVLMDLQGPKLRVGRFAAGAVQLQRGQTFTLDLSDAPGDERRVNLPHPEIIHALEPGMSLLLDDGKIRLEVVNCHSDAIETRVAVGGELSDRKGVNVPEAVLQLSPLTDKDRRDLAFGLELGVDWVALSFVQRPEDIDEARGLIGDKAFLMAKIEKPSAVSAIEAIAERADAIMVARGDLGVEVPAESVPGIQKRIVQVCRQLGKPVVVATQMLESMRFSPAPTRAEVTDVATAVGAGADAVMLSAETASGQYPREAVEMMAKIVRQVEAEPDYHVQLEVNRPQPDATVSDAISCAIRRVSRILPVAVLVNYTESGNSTLRAARERPKAPILSLTPNLRTARRLTVAWGVYSVVNEQLAHVDEICSTALDIALAQRMARRGDTVVVTAGVPFGRPGSTNMLRIETVAPPLGDL
notes: Pyruvate kinase PykF of Pseudomonas aeruginosa (PA1498), untagged full-length protein, 477 residues, monomer 51.5 kDa; also called PA1498; source: E. coli BL21 (DE3) with plasmid pET-19m (pykF), purified
[1]
  K0.5: 1.03 ± 0.01 mM
  kcat: 379 s⁻¹
  kcat/Km: 367000 M⁻¹ s⁻¹
[2]
  K0.5: 0.11 ± 0.01 mM
  kcat: 433 s⁻¹
  kcat/Km: 3.94e+06 M⁻¹ s⁻¹
[3]
  stoichiometry N: 4
